T1: EsCas13d, nuclease-dead (Eubacterium siraeum, UniProt B0MS50, R295A;H300A;R849A;H854A)
T1 sequence: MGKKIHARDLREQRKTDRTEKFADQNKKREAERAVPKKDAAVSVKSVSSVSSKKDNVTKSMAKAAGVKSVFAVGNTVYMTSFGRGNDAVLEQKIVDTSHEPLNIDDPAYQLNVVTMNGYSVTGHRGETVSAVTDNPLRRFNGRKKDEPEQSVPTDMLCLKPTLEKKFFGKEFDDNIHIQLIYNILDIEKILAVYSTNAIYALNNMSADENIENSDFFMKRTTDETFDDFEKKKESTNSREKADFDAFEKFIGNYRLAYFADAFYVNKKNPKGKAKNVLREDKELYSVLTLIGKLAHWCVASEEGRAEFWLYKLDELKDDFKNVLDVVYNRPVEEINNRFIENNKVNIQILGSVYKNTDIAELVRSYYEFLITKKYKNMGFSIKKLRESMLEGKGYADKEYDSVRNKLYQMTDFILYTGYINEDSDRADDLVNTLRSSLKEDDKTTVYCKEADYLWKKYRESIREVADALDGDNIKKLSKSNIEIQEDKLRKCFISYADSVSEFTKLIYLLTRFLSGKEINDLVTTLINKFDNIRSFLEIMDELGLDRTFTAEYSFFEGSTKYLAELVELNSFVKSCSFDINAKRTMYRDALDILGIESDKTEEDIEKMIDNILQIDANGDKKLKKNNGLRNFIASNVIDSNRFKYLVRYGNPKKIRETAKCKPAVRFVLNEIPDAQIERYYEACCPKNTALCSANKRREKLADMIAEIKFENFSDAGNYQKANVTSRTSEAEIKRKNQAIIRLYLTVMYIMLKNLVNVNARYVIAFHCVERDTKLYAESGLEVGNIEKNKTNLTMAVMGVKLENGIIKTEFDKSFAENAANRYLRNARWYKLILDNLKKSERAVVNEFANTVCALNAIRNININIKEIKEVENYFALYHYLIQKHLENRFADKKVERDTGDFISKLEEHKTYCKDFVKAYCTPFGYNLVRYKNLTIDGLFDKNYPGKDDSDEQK


Molecular target: T1, EsCas13d, nuclease-dead
Test: crRNA (strand 1, pre-loaded); Mg2+; 40 mM Tris-HCl pH 7.5, 150 mM NaCl, 6 mM MgCl2, 1 mM DTT, 0.1% Tween-20, 0.2 mg/ml BSA; 25 C; 10 min per concentration, then washed
Conditions: tags: His6-TwinStrep-SUMO cleaved; N-terminal SNAP kept (SNAP-Surface 488); label: 3' end held by stalled T7 RNA polymerase

| Binder | Kd |
| --- | --- |
| target 1 insC 3' of 9,insU 3' of 1 (mixed) RNA 1: CACCCGUGCAAAAAUGCAGGGGUCUAAAACUGAGCGGAUAACCUCUCUAUGG RNA 2: GGGAAUGGAUCCACAUCUACGAAUUCGUACCAUAGAGAGGUUACUCCGCUCAUCCGAGAUCGGAAGAGCACACGU | 14.6 ± 0.7 nM |
| target 1 insU 3' of 14,insA 3' of 4 (mixed) RNA 1: CACCCGUGCAAAAAUGCAGGGGUCUAAAACUGAGCGGAUAACCUCUCUAUGG RNA 2: GGGAAUGGAUCCACAUCUACGAAUUCGUACCAUAGAGAUGGUUAUCCGCAUCACCGAGAUCGGAAGAGCACACGU | 26 ± 4 nM |
| target 2 MT 5'PFS UAU 3'PFS AAC (mixed) RNA 1: CACCCGUGCAAAAUUGCAGGGGUCUAAAACCUUCUCCAAAUUGUUUCAUCCU RNA 2: GGGAAUGGAUCCACAUCUACGAAUUCUAUAGGAUGAAACAAUUUGGAGAAGAACAGAUCGGAAGAGCACACGU | 24 ± 2.8 nM |
| target 2 MT 5'PFS UAU 3'PFS AAU (mixed) RNA 1: CACCCGUGCAAAAUUGCAGGGGUCUAAAACCUUCUCCAAAUUGUUUCAUCCU RNA 2: GGGAAUGGAUCCACAUCUACGAAUUCUAUAGGAUGAAACAAUUUGGAGAAGAAUAGAUCGGAAGAGCACACGU | 16.2 ± 1.5 nM |
| target 2 MT 5'PFS GCA 3'PFS CGC (mixed) RNA 1: CACCCGUGCAAAAUUGCAGGGGUCUAAAACCUUCUCCAAAUUGUUUCAUCCU RNA 2: GGGAAUGGAUCCACAUCUACGAAUUCGCAAGGAUGAAACAAUUUGGAGAAGCGCAGAUCGGAAGAGCACACGU | 13.1 ± 1.9 nM |
| target 2 MT 5'PFS UAU 3'PFS AAA (mixed) RNA 1: CACCCGUGCAAAAUUGCAGGGGUCUAAAACCUUCUCCAAAUUGUUUCAUCCU RNA 2: GGGAAUGGAUCCACAUCUACGAAUUCUAUAGGAUGAAACAAUUUGGAGAAGAAAAGAUCGGAAGAGCACACGU | 18 ± 3.5 nM |
| target 2 MT 5'PFS GGU 3'PFS UAU (mixed) RNA 1: CACCCGUGCAAAAUUGCAGGGGUCUAAAACCUUCUCCAAAUUGUUUCAUCCU RNA 2: GGGAAUGGAUCCACAUCUACGAAUUCGGUAGGAUGAAACAAUUUGGAGAAGUAUAGAUCGGAAGAGCACACGU | 17.6 ± 3.3 nM |
| target 2 MT 5'PFS GGA 3'PFS UUC (mixed) RNA 1: CACCCGUGCAAAAUUGCAGGGGUCUAAAACCUUCUCCAAAUUGUUUCAUCCU RNA 2: GGGAAUGGAUCCACAUCUACGAAUUCGGAAGGAUGAAACAAUUUGGAGAAGUUCAGAUCGGAAGAGCACACGU | 28 ± 6 nM |
| target 2 MT 5'PFS GGA 3'PFS UUA (mixed) RNA 1: CACCCGUGCAAAAUUGCAGGGGUCUAAAACCUUCUCCAAAUUGUUUCAUCCU RNA 2: GGGAAUGGAUCCACAUCUACGAAUUCGGAAGGAUGAAACAAUUUGGAGAAGUUAAGAUCGGAAGAGCACACGU | 18.1 ± 3.5 nM |
| target 2 MT 5'PFS AGG 3'PFS CUU (mixed) RNA 1: CACCCGUGCAAAAUUGCAGGGGUCUAAAACCUUCUCCAAAUUGUUUCAUCCU RNA 2: GGGAAUGGAUCCACAUCUACGAAUUCAGGAGGAUGAAACAAUUUGGAGAAGCUUAGAUCGGAAGAGCACACGU | 7.3 ± 0.9 nM |
| target 2 MT 5'PFS UGG 3'PFS UCU (mixed) RNA 1: CACCCGUGCAAAAUUGCAGGGGUCUAAAACCUUCUCCAAAUUGUUUCAUCCU RNA 2: GGGAAUGGAUCCACAUCUACGAAUUCUGGAGGAUGAAACAAUUUGGAGAAGUCUAGAUCGGAAGAGCACACGU | 41 ± 11 nM |
| target 2 MT 5'PFS GCA 3'PFS AGA (mixed) RNA 1: CACCCGUGCAAAAUUGCAGGGGUCUAAAACCUUCUCCAAAUUGUUUCAUCCU RNA 2: GGGAAUGGAUCCACAUCUACGAAUUCGCAAGGAUGAAACAAUUUGGAGAAGAGAAGAUCGGAAGAGCACACGU | 8.2 ± 1.7 nM |
| target 2 MT 5'PFS GGA 3'PFS UUU (mixed) RNA 1: CACCCGUGCAAAAUUGCAGGGGUCUAAAACCUUCUCCAAAUUGUUUCAUCCU RNA 2: GGGAAUGGAUCCACAUCUACGAAUUCGGAAGGAUGAAACAAUUUGGAGAAGUUUAGAUCGGAAGAGCACACGU | 41 ± 9 nM |
| target 2 MT 5'PFS CUG 3'PFS UAA (mixed) RNA 1: CACCCGUGCAAAAUUGCAGGGGUCUAAAACCUUCUCCAAAUUGUUUCAUCCU RNA 2: GGGAAUGGAUCCACAUCUACGAAUUCCUGAGGAUGAAACAAUUUGGAGAAGUAAAGAUCGGAAGAGCACACGU | 2.77 ± 0.2 nM |
| target 2 MT 5'PFS AGG 3'PFS CUC (mixed) RNA 1: CACCCGUGCAAAAUUGCAGGGGUCUAAAACCUUCUCCAAAUUGUUUCAUCCU RNA 2: GGGAAUGGAUCCACAUCUACGAAUUCAGGAGGAUGAAACAAUUUGGAGAAGCUCAGAUCGGAAGAGCACACGU | 9.4 ± 1.7 nM |
| target 2 MT 5'PFS GGU 3'PFS UAA (mixed) RNA 1: CACCCGUGCAAAAUUGCAGGGGUCUAAAACCUUCUCCAAAUUGUUUCAUCCU RNA 2: GGGAAUGGAUCCACAUCUACGAAUUCGGUAGGAUGAAACAAUUUGGAGAAGUAAAGAUCGGAAGAGCACACGU | 9.8 ± 1.1 nM |
| target 2 MT 5'PFS GCA 3'PFS AGC (mixed) RNA 1: CACCCGUGCAAAAUUGCAGGGGUCUAAAACCUUCUCCAAAUUGUUUCAUCCU RNA 2: GGGAAUGGAUCCACAUCUACGAAUUCGCAAGGAUGAAACAAUUUGGAGAAGAGCAGAUCGGAAGAGCACACGU | 7.5 ± 1.6 nM |
| target 2 MT 5'PFS GGA 3'PFS UUG (mixed) RNA 1: CACCCGUGCAAAAUUGCAGGGGUCUAAAACCUUCUCCAAAUUGUUUCAUCCU RNA 2: GGGAAUGGAUCCACAUCUACGAAUUCGGAAGGAUGAAACAAUUUGGAGAAGUUGAGAUCGGAAGAGCACACGU | 18.3 ± 2.7 nM |
| target 2 MT 5'PFS CUG 3'PFS UAU (mixed) RNA 1: CACCCGUGCAAAAUUGCAGGGGUCUAAAACCUUCUCCAAAUUGUUUCAUCCU RNA 2: GGGAAUGGAUCCACAUCUACGAAUUCCUGAGGAUGAAACAAUUUGGAGAAGUAUAGAUCGGAAGAGCACACGU | 5.3 ± 1.2 nM |
| target 2 MT 5'PFS GCA 3'PFS CGA (mixed) RNA 1: CACCCGUGCAAAAUUGCAGGGGUCUAAAACCUUCUCCAAAUUGUUUCAUCCU RNA 2: GGGAAUGGAUCCACAUCUACGAAUUCGCAAGGAUGAAACAAUUUGGAGAAGCGAAGAUCGGAAGAGCACACGU | 8.4 ± 1.1 nM |
| target 2 MT 5'PFS CUC 3'PFS AUA (mixed) RNA 1: CACCCGUGCAAAAUUGCAGGGGUCUAAAACCUUCUCCAAAUUGUUUCAUCCU RNA 2: GGGAAUGGAUCCACAUCUACGAAUUCCUCAGGAUGAAACAAUUUGGAGAAGAUAAGAUCGGAAGAGCACACGU | 2.11 ± 0.28 nM |
| target 2 MT 5'PFS UCU 3'PFS AUA (mixed) RNA 1: CACCCGUGCAAAAUUGCAGGGGUCUAAAACCUUCUCCAAAUUGUUUCAUCCU RNA 2: GGGAAUGGAUCCACAUCUACGAAUUCUCUAGGAUGAAACAAUUUGGAGAAGAUAAGAUCGGAAGAGCACACGU | 9.3 ± 1.1 nM |
| target 2 MT 5'PFS AUU 3'PFS AAC (mixed) RNA 1: CACCCGUGCAAAAUUGCAGGGGUCUAAAACCUUCUCCAAAUUGUUUCAUCCU RNA 2: GGGAAUGGAUCCACAUCUACGAAUUCAUUAGGAUGAAACAAUUUGGAGAAGAACAGAUCGGAAGAGCACACGU | 7.3 ± 0.9 nM |
| target 2 MT 5'PFS CUC 3'PFS AUC (mixed) RNA 1: CACCCGUGCAAAAUUGCAGGGGUCUAAAACCUUCUCCAAAUUGUUUCAUCCU RNA 2: GGGAAUGGAUCCACAUCUACGAAUUCCUCAGGAUGAAACAAUUUGGAGAAGAUCAGAUCGGAAGAGCACACGU | 1.91 ± 0.31 nM |
| target 2 MT 5'PFS AGG 3'PFS CUG (mixed) RNA 1: CACCCGUGCAAAAUUGCAGGGGUCUAAAACCUUCUCCAAAUUGUUUCAUCCU RNA 2: GGGAAUGGAUCCACAUCUACGAAUUCAGGAGGAUGAAACAAUUUGGAGAAGCUGAGAUCGGAAGAGCACACGU | 7.4 ± 0.9 nM |
| target 2 MT 5'PFS AUU 3'PFS AUG (mixed) RNA 1: CACCCGUGCAAAAUUGCAGGGGUCUAAAACCUUCUCCAAAUUGUUUCAUCCU RNA 2: GGGAAUGGAUCCACAUCUACGAAUUCAUUAGGAUGAAACAAUUUGGAGAAGAUGAGAUCGGAAGAGCACACGU | 7.5 ± 0.8 nM |
| target 2 MT 5'PFS CUA 3'PFS ACC (mixed) RNA 1: CACCCGUGCAAAAUUGCAGGGGUCUAAAACCUUCUCCAAAUUGUUUCAUCCU RNA 2: GGGAAUGGAUCCACAUCUACGAAUUCCUAAGGAUGAAACAAUUUGGAGAAGACCAGAUCGGAAGAGCACACGU | 1.8 ± 0.4 nM |
| target 2 MT 5'PFS CUC 3'PFS AUG (mixed) RNA 1: CACCCGUGCAAAAUUGCAGGGGUCUAAAACCUUCUCCAAAUUGUUUCAUCCU RNA 2: GGGAAUGGAUCCACAUCUACGAAUUCCUCAGGAUGAAACAAUUUGGAGAAGAUGAGAUCGGAAGAGCACACGU | 1.74 ± 0.26 nM |
